The values that follow are results of earlier work, collected in patent US20030219387A1, “Local delivery of agents for disruption and inhibition of bacterial biofilm for treatment of periodontal disease” (priority 2000, published 2003).

This series has as its system binding of cells. The settings on record: iron-saturated form.

B1: Lactoferrin: iron-binding salivary protein (protein, UniProt P02788 20-710, looked up)
Lactotransferrin: GRRRSVQWCAVSQPEATKCFQWQRNMRKVRGPPVSCIKRDSPIQCIQAIAENRADAVTLDGGFIYEAGLAPYKLRPVAAEVYGTERQPRTHYYAVAVVKKGGSFQLNELQGLKSCHTGLRRTAGWNVPIGTLRPFLNWTGPPEPIEAAVARFFSASCVPGADKGQFPNLCRLCAGTGENKCAFSSQEPYFSYSGAFKCLRDGAGDVAFIRESTVFEDLSDEAERDEYELLCPDNTRKPVDKFKDCHLARVPSHAVVARSVNGKEDAIWNLLRQAQEKFGKDKSPKFQLFGSPSGQKDLLFKDSAIGFSRVPPRIDSGLYLGSGYFTAIQNLRKSEEEVAARRARVVWCAVGEQELRKCNQWSGLSEGSVTCSSASTTEDCIALVLKGEADAMSLDGGYVYTAGKCGLVPVLAENYKSQQSSDPDPNCVDRPVEGYLAVAVVRRSDTSLTWNSVKGKKSCHTAVDRTAGWNIPMGLLFNQTGSCKFDEYFSQSCAPGSDPRSNLCALCIGDEQGENKCVPNSNERYYGYTGAFRCLAENAGDVAFVKDVTVLQNTDGNNNEAWAKDLKLADFALLCLDGKRKPVTEARSCHLAMAPNHAVVSRMDKVERLKQVLLHQQAKFGRNGSDCPDKFCLFQSETKNLLFNDNTECLARLHGKTTYEKYLGPQYVAGITNLKKCSTSPLLEACEFLRK
modifications: iron saturated
For B1, the binding of cells result is “reduce binding of cells”.
